# Data as given in patent US20240010687A1 (University of Washington, published 2024).
# T1: 54.7_112_Axle
# T1 construct: Axle of a C3-C3 design (C3 homotrimer); It carries no His tag in the bicistronic pull-down; For biolayer interferometry it was Avi-tagged and biotinylated; also called C3-C3 design 54.7.112
# T1 chain: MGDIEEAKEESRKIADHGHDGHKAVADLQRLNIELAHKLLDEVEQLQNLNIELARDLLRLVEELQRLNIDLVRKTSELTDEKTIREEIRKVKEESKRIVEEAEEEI
# T2: C3D3_AR113_Axle (D3-C3)
# T2 construct: De novo designed D3 homohexameric axle, a surface redesign of 1552_1na0C3_int2_11; For biolayer interferometry the axle was Avi-tagged and enzymatically biotinylated; also called D3 axle; designed D3 axle
# T2 chain: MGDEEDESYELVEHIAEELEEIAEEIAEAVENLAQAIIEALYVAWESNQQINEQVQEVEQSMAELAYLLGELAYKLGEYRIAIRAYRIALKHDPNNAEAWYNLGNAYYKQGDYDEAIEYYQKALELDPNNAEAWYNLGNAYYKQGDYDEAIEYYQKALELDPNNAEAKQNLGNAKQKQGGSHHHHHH
# T3: C5C3_3250_Axle (C5-C3)
# T3 construct: C5 homopentameric axle; For biolayer interferometry it was Avi-tagged and biotinylated; also called C5 axle
# T3 chain: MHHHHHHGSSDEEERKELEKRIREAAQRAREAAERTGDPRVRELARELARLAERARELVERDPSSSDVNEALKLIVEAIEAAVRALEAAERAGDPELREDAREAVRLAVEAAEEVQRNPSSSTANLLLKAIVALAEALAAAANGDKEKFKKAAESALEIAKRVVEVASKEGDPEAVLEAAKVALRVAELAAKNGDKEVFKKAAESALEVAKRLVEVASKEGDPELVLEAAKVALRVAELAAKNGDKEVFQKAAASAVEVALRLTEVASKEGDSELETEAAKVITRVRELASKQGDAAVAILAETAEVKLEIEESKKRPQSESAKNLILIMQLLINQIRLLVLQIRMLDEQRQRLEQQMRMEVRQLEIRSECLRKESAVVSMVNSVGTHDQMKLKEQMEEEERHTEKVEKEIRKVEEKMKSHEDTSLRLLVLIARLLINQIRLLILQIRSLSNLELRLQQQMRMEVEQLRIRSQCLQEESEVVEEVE
# T4: 119RC4_20_Axle (D8-C4)
# T4 construct: D8 homo-16-meric axle; two C4 rings assemble around one axle; also called D8 axle; D8A_1615
# T4 chain: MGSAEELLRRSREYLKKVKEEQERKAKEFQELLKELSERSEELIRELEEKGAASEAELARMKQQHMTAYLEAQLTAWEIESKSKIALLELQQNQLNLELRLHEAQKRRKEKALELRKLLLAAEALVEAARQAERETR
# T5: C8D8_6_49_119RC4_20_Axle (C8-C4)
# T5 construct: C8 homooctameric axle, the circular permutation version of the D8 axle; For biolayer interferometry it was Avi-tagged and biotinylated; also called C8 axle
# T5 chain: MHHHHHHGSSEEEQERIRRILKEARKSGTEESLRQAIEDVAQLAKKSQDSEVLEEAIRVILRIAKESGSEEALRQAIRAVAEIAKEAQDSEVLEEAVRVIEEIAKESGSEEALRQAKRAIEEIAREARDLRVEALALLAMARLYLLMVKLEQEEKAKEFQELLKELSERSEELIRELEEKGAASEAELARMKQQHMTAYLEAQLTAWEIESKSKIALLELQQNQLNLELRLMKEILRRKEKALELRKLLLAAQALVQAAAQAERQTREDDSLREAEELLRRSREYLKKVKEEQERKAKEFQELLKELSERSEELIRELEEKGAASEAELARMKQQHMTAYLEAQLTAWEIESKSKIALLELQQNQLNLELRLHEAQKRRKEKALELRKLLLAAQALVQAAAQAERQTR
# Experiments:
# 54.7_112_Axle = target: T1, 54.7_112_Axle; experiment: biolayer interferometry, biotinylated axle on streptavidin tips, ring in solution
# Protocol: (§1) FIG. 13. Biolayer interferometry assays measuring in vitro assembly of ring and axle parts into a full rotary system. For each 6 designs, the equilibrium binding curves from biolayer interferometry binding assays is shown on the left and the corresponding Biolayer interferometry kinetic binding traces shown on the right. Biotinylated axles were immobilized on the tip and the binding in a solution of fre rings was measured. For both D3-C5 and D3-C3, a fresh ring solution was prepared by buffer exchange from citrate buffer to TBS with reducing agent, and immediately used for binding assays.
# Biolayer interferometry experiments were performed on an OctetRED96 BLI system (ForteBio, Menlo Park, CA). Enzymatic protein biotinylation was performed on SEC purified Avi-tagged proteins prior to the assay. The BirA500 (Avidity, LLC) biotinylation kit was used to biotinylate protein from the IMAC elution according to the manufacturer protocol. Reactions were incubated at 4C overnight and purified using size exclusion chromatography on a Superdex™ 6 10/300 Increase GL (GE Healthcare) in TBS buffer (25 mM Tris pH 8.0, 25 mM NaCl). Streptavidin coated biosensors were equilibrated for 10 minutes in Octet buffer (10 mM HEPES pH 7.4, 25 mM NaCl, 3 mM EDTA, 0.05% Surfactant P20) supplemented with 1 mg/ml Bovine Serum Albumin (SigmaAldrich). […]
# C3D3_AR113_Axle (D3-C3) = target: T2, C3D3_AR113_Axle (D3-C3); experiment: negative stain EM after pH-controlled, oxidoreductive assembly of axle and ring
# C5C3_3250_Axle (C5-C3) = target: T3, C5C3_3250_Axle (C5-C3); experiment: SEC, SAXS, biolayer interferometry binding kinetics and negative stain EM
# Protocol: as §1
# (§2) Protein samples were purified by SEC in 25 mM Tris pH 8.0, 25 mM NaCl and 1% glycerol; elution fractions corresponding to the protein were further concentrated using 3K protein concentrators (Millipore Sigma) and the flow-through was used as blank for buffer subtraction. SAXS Scattering measurements were performed at the SIBYLS 12.3.1 beamline at the Advanced Light Source. […] Collected data were processed using the SAXS FrameSlice™ online server and analysed using the ScÅtter software package(23). […]
# 119RC4_20_Axle (D8-C4) = target: T4, 119RC4_20_Axle (D8-C4); experiment: stoichiometric mixing of separately purified axle and ring, then SEC, SAXS and EM
# [1] = target: T5, C8D8_6_49_119RC4_20_Axle (C8-C4); experiment: SEC, SAXS, biolayer interferometry binding kinetics and negative stain EM
# Protocol: as §1, §2
binder,measurement,setting,value
"54.7_112_Ring (designed binder, also called C3-C3 design 54.7.112) MGVEELLLLARAAHHSGTTVEEAYKLALKLGISVKELLLLARAAHNSGTTVEEAYKLALKLGISVEELLLLAKAAHYSGTTVEEAYKLALKLGISVRELLLLAKAAHFSGTTVEEAYKLALKLGISVEELLLLARAAHHSGTTVEEAYKLALKLGISVKELLLLARAAHNSGTTVEEAYKLALKLGISVEELLLLAKAAHYSGTTVEEAYKLALKLGISVRELLLLAKAAHFSGTTVEEAYKLALKLGISVEELLLLARAAHHSGTTVEEAYKLALKLGISVKELLLLARAAHNSGTTVEEAYKLALKLGISVEELLLLAKAAHYSGTTVEEAYKLALKLGISVRELLLLAKAAHFSGTTVEEAYKLALKLGISGSHHHHHH",binding result,54.7_112_Axle,binds
"C3D3_AR113_Ring (D3-C3) (designed binder, De novo designed C3 homotrimeric ring with disulfides and histidine networks at the subunit interfaces; also called C3 ring; ring of the D3-C3 rotor) MGQRSGHARQLKRHLHRLRRHLERLDKHAKHLRQILSERPQDERVKDSIDLLEESVRIVKISIKIFEASVRALLWAINKEAEELAKSPDPHDLHRAVRLARAVVQADPGSNLSKKALEIILRAAAELAKLPDPNALAAAARAASQVQREQPGSNLAKAAQEIMRQASRAAEEAARRAKETLEKAEKRGDPKTALQAVRTVVKVAAALNQIATMAGSEEAQERAARVAAEAAELALRVFELAEKQGDPHVARRARKLIQTVLQILLRILTQILETATKIIEEANKLLRKHRRSSRKDPKLVETHVELVKRHERLVRQHLKIALMHALAVLELAFPDAEAAKLASKAAKEAEELCKQSTDERLCDLLAELAALLIELAARYPDSEAAKLALKAALEAIELCKQSTDEELCEELVKLAQKLIELAKRYPDSEEAKRALKEAKELIEQCKESTDEDECRELVKRAEELIREAKEGSHHHHHH",binding result,C3D3_AR113_Axle (D3-C3),binds
"C5C3_3250_Ring (C5-C3) (designed binder, C3 homotrimeric ring; also called C3 ring) MGNRSLHANKLKTHLENLREHLKRLDEHAKQLRDILSEHPHDERVKDSIDLLEESVRIVKISIKIFEASVRALLWAINKEAEELAKSPDPADLERAVRLAAAVVRADPGSNLSKKALEIILRAAAELAKLPDPKALAAAAEAASRVQREQPGSNLAKAAQEIMRQASRAAEEAARRAKETLEKAEKDGDPRTALQAVMTVVEVAKALNIIATMAGSEEAQERAARVAAEAAELALRVFELAEKQGDPEVAHNARKLIEIVLHILLQILTQILETATKIIREANELLEKHRRSHHHDPKLVETHVELVKRHERLVRQHLKIALMHALAVLELAFPDAEAAKLASKAAKEAEELCKQSTDERLCDLLAELAALLIELAARYPDSEAAKLALKAALEAIELCKQSTDEELCEELVKLAQKLIELAKRYPDSEEAKRALKEAKELIEQCKESTDEDECRELVKRAEELIREAKEGSHHHHHH",binding result,C5C3_3250_Axle (C5-C3),binds
"119RC4_20_Ring (D8-C4) (designed binder, C4 ring of four subunits, each fused to DHR20; two rings sit on each D8 axle; also called C4 ring) MGCDAIQAAAALGEAGISSNEILELLAAAAELGLDPDAIQAAAQLGEAGISSEEILELLRAAHELGLDPDAIAAAADLGQAGISSEEILELLRAAHELGLDPDAIQAAAALGEAGISSEEILELLRAAHELGLDPDAIQAAAQLGEAGISSEEILELLRAAHELGLDPDCIAAAADLGQAGISSSEITALLLAAAAIELAKRADDKDVREIVRDALELASRSTNDEVIRLALEAAVLAARSTDSDVLEIVKDALELAKQSTNEEVIKLALKAAVLAAKSTDEEVLEEVKEALRRAKESTDEEEIKEELRKAVEEAEGSHHHHHH",binding result,119RC4_20_Axle (D8-C4),binds
"C8D8_6_49_119RC4_20_Ring (C8-C4) (designed binder, C4 ring of four subunits; also called C4 ring) MGCDAIQAAAALGEAGISSNEILELLAAAAELGLDPDAIQAAAQLGEAGISSEEILELLRAAHELGLDPDAIAAAADLGQAGISSEEILELLRAAHELGLDPDAIQAAAALGEAGISSEEILELLRAAHELGLDPDAIQAAAQLGEAGISSEEILELLRAAHELGLDPDCIAAAADLGQAGISSSEITALLLAAAAIELAKRADDKDVREIVRDALELASRSTNDEVIRLALEAAVLAARSTDSDVLEIVKDALELAKQSTNEEVIKLALKAAVLAAKSTDEEVLEEVKEALRRAKESTDEEEIKEELRKAVEEAEGSHHHHHH",binding result,[1],binds
